A word on the stoichiometry N: it is a count of units in the complex or per binding partner. In general, kon refers to a measure of how fast the partners come together. One may read the koff as the first-order rate constant of dissociation.

The target in assay [1] is HAdV-41 penton base protein, recombinant, soluble (human adenovirus type 41 (HAdV-41)). In words: negative-stain electron microscopy.
Assay [2] has as its target recombinant human integrin α6β1 (human) (UniProt P23229). In words: SPR; Biacore T200; integrin α6β4 or α6β1 immobilised by EDC/NHS coupling on CM5 chips (about 16000 RU); seven 2-fold dilutions of PB injected 120 s at 30 µl/minute, 120 s dissociation; 10 mM HEPES, 150 mM NaCl, 1 mM CaCl2, 1 mM MgCl2, 0.05% P20, pH 7.4; 25 °C.
Assay [3] addresses HAdV-41 penton base protein, recombinant, soluble (human adenovirus type 41 (HAdV-41)). In words: gas-phase electrophoretic mobility macromolecular analysis (GEMMA).
For assay [4], the target named is recombinant human integrin α6β4 (human) (UniProt P23229). In words: SPR; Biacore T200; integrin α6β4 or α6β1 immobilised by EDC/NHS coupling on CM5 chips (about 16000 RU); seven 2-fold dilutions of PB injected 120 s at 30 µl/minute, 120 s dissociation; 10 mM HEPES, 150 mM NaCl, 1 mM CaCl2, 1 mM MgCl2, 0.05% P20, pH 7.4; 25 °C. In general terms: SPR reads the build-up and loss of mass on a sensor chip optically.
Chain of recombinant human integrin α6β4 (human) (P23229 24-1130, chain 1 of 2): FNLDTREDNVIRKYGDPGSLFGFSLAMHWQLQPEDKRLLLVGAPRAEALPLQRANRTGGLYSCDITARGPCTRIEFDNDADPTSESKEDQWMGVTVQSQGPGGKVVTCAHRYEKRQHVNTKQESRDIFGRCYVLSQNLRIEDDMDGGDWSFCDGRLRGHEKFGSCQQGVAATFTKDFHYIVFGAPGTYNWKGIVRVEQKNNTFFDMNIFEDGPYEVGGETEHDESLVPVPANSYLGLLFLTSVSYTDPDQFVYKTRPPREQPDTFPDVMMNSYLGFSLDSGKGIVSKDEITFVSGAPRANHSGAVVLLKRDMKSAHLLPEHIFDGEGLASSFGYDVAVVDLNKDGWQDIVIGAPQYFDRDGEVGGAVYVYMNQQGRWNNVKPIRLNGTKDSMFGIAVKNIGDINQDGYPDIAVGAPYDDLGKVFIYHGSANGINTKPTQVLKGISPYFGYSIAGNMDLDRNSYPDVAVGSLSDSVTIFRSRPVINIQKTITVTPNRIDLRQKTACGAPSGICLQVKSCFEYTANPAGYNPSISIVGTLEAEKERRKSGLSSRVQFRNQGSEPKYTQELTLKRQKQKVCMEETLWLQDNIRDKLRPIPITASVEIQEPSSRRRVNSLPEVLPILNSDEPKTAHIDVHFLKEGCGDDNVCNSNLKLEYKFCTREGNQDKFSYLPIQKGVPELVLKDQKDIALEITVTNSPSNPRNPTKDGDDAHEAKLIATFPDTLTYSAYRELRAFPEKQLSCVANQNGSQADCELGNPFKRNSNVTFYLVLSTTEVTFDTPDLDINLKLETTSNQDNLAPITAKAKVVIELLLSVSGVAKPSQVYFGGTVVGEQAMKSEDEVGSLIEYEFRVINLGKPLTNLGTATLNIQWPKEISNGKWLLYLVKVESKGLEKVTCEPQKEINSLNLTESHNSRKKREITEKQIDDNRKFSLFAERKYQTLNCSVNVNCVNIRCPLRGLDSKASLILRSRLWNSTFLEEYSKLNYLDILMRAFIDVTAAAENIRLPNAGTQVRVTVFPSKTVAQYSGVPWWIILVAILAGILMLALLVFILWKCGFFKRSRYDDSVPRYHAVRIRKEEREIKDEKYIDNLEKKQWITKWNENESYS
Chain of recombinant human integrin α6β4 (human) (P16144 28-710, chain 2 of 2, further chain): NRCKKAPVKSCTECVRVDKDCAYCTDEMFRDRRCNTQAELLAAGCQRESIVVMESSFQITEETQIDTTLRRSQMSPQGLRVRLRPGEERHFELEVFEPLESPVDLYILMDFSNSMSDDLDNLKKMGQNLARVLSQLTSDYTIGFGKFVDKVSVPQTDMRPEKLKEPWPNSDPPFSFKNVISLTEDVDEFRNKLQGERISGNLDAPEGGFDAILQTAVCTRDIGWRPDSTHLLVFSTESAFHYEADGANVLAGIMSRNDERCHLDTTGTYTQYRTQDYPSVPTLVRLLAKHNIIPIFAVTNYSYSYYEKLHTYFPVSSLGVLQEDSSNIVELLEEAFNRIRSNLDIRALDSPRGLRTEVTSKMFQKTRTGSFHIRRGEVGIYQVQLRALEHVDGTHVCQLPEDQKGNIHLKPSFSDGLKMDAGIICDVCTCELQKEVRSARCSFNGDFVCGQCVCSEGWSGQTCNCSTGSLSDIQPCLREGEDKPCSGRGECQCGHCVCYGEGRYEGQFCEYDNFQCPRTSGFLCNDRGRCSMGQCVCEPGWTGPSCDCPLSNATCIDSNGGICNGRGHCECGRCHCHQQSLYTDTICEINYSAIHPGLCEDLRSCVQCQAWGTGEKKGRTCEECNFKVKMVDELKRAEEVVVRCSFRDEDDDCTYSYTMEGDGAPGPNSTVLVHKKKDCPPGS

In the case of “HAdV-41 penton base protein, recombinant, soluble (natural protein)”, the stoichiometry N in assay [1] and in assay [3] was 5 in each case. Also, the fold lower affinity than to α6β4 in assay [2] was 10 fold. In assay [2], the kon was 10000 M⁻¹ s⁻¹.
In the case of “HAdV-40 penton base protein, recombinant, soluble (natural protein)”, in assay [2], the fold lower affinity than to α6β4 was found to be 10 fold and the off-rate (koff) was 0.1 s⁻¹.
“HAdV-5 penton base protein, recombinant, soluble (from UniProt P12538 1-571) (natural protein)”: the fold lower affinity than 40PB and 41PB in assay [4] and in assay [2] was 3 fold throughout.

(Values after paper PMC6030200.)
